Source: patent US20230265201A1 (published 2023)

target: T1, recombinant human CD70 (Flag-TNC-CD70) (human, UniProt P32970 39-193); experiment: CD27-CD70 inhibition ELISA, human Flag-TNC-CD70
T1 construct: extracellular domain; also called recombinant CD70; human Flag-TNC-CD70; not shown: Flag tag and TNC trimerisation domain
T1 sequence (looked up): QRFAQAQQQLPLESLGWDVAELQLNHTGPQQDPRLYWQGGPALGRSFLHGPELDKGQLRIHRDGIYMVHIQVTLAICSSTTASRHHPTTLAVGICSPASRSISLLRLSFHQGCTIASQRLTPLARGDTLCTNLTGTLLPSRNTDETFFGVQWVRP

Molecule	IC50 [µg/mL]
MDX1411 mAb (antibody)	0.044

target: T2, human CD70 on the surface of cells (human, UniProt P32970 1-193); experiment: cell-based or functional assay
T2 sequence (looked up): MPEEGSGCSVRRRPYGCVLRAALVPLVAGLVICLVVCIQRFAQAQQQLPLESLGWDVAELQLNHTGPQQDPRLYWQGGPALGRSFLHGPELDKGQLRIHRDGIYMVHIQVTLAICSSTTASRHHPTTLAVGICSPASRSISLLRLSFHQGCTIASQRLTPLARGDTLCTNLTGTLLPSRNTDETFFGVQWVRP

Molecule	Raji co-culture assay IC50 relative to 27B3
53A2 mAb (human IgG1, HEK293) (antibody, V domains shown) VH: EVQLVESGGGLVQPGGSLRLSCAASGFTFSVYYMNWVRQAPGKGLEWVSDINNEGGTTYYADSVKGRFTISRDNSKNSLYLQMNSLRAEDTAVYYCARDAGYSNHVPIFDSWGQGTLVTVSS VL: QAVVTQEPSFSVSPGGTVTLTCGLKSGSVTSDNFPTWYQQTPGQAPRLLIYNTNTRHSGVPDRFSGSILGNKAALTITGAQADDEAEYFCALFISNPSVEFGGGTQLTVLG	0.8 fold relative to 27B3
41D12 mAb (human IgG1, HEK293) (antibody, V domains shown) VH: EVQLVESGGGLVQPGGSLRLSCAASGFTFSVYYMNWVRQAPGKGLEWVSDINNEGGTTYYADSVKGRFTISRDNSKNSLYLQMNSLRAEDTAVYYCARDAGYSNHVPIFDSWGQGTLVTVSS VL: QAVVTQEPSLTVSPGGTVTLTCGLKSGSVTSDNFPTWYQQTPGQAPRLLIYNTNTRHSGVPDRFSGSILGNKAALTITGAQADDEAEYFCALFISNPSVEFGGGTQLTVLG	1.2 fold relative to 27B3
35G2 mAb (human IgG1, HEK293) (antibody, V domains shown) VH: EVQLVESGGGLVQPGGSLRLSCAASGFTFSVYYMNWVRQAPGKGLEWVSDINNEGGTTYYADSVKGRFTISRDNAKNTLYLQMNSLKPEDTAVYYCARDAGYSNHVPIFDSWGQGTLVTVSS VL: QTVVTQEPSFSVSPGGTVTLTCGLKSGSVTSTNFPTWYQQTPGQAPRLLIYNTNSRHSGVPDRFSGSILGNKAALTITGAQADDEADYFCALFISNPSVEFGGGTQLTVLG	1.4 fold relative to 27B3
53H1 mAb (human IgG1, HEK293) (antibody, V domains shown) VH: EVQLVESGGGLVQPGGSLRLSCAASGFTFSVYYMNWVRQAPGKGLEWVSDINNEGGTTYYADSVKGRFTISRDNSKNSLYLQMNSLRAEDTAVYYCARDAGYSNHVPIFDSWGQGTLVTVSS VL: QTVVTQEPSFSVSPGGTVTLTCGLKSGSVTSDNFPTWYQQTPGQAPRLLIYNTNTRHSGVPDRFSGSILGNKAALTITGAQADDEAEYFCALFISNPSVEFGGGTQLTVLG	1.6 fold relative to 27B3
40F1 mAb (human IgG1, HEK293) (antibody, V domains shown) VH: EVQLVESGGGLVQPGGSLRLSCAASGFTFSVYYMNWVRQAPGKGLEWVSDINNEGGATYYADSVKGRFTISRDNSKNSLYLQMNSLRAEDTAVYYCARDAGYSNHVPIFDSWGQGTQVTVSS VL: QAVVTQEPSFSVSPGGTVTLTCGLKSGSVTSDNFPTWYQQTPGQAPRLLIYNTNTRHSGVPDRFSGSILGNKAALTITGAQADDEAEYFCALFISNPSVEFGGGTQLTVLG	1.8 fold relative to 27B3

target: T1, recombinant human CD70 (Flag-TNC-CD70); experiment: blocking ELISA of Example 19: CD27 Fc chimera on anti-Flag-captured Flag-TNC-CD70

Molecule	IC50 [µg/mL]
MDX1411 mAb (antibody)	5.5

target: T3, rhesus recombinant CD70 (FLAG-TNC-rhesus CD70) (rhesus macaque (Macaca mulatta), UniProt F7GPA5 174-316); experiment: Biacore, Fab over immobilised rhesus CD70
T3 construct: also called rhesus Flag-TNC-CD70; Rhesus monkey; not shown: Flag tag and TNC trimerisation domain
T3 sequence: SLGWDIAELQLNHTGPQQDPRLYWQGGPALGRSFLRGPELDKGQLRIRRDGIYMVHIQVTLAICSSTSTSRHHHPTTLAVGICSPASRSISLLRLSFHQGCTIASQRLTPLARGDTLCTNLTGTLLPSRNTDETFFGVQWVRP

Molecule	koff [s⁻¹]
1C2 Fab (Fab, V domains shown, Llama-derived Fab from phage display; MYC tag at C-terminus of Fd) VH: ELQVVESGGGLVQPGGSLRLSCAASGFTLSNYWMHWVRQAPRKGLEWVSTISTDNSRTYYADSVKGRFTISRDHAKNTLILQMNSLKSEDTAVYYCIRGSDYEHWGQGTQVTVSS VL: QTVVTQEPSLSVSPGGTVTLTCGLSSGSVTTTNYPGWFQQTPGQAPRTLIYSTSSRHSGVPSRFSGSISGNKAALTITGAQPEDEADYYCALEEIGSYTYMFGGGTHLTVLG	0.00032
4D2 Fab (Fab, V domains shown, Llama-derived Fab from phage display; MYC tag at C-terminus of Fd) VH: QVQLQESGPGLVKPSQTLSLACTVSGGSITTSYYYWSWIRQPPGKGLEWMGAIGSRGSTYYSPSLKTRTSISRDTSKNQFTLQLSSVTPEDTAVYYCARVTGEITYNSGSYYYTLNLFDYWGQGTQVTVSS VL: QSVLTQPPSLSASPGSSVRLTCTLSSGNSVGNYDISWYQQKAGSPPRYLLYYYSDSYKNQGSGVPSRFSGSKDPSANAGLLLISGLQAEDEADYYCSVSNSGTYKPVFGGGSKLTVLG	0.00029
9E1 Fab (Fab, V domains shown, Llama-derived Fab from phage display; MYC tag at C-terminus of Fd) VH: EVQLQESGGGVVQPGGSLRLSCAASGFTFDDYAMSWVRQAPGKGLEWVSSIYMYDSSTYYADSVKGRFTISTDNAKNTVYLQMNSLKSEDTAVYYCAKDINRSYGSSWSHFGPIFSSWGQGTQVTVSS VL: QAVVTQEPSLSVSPGGTVTLTCGLTSGSVTSSNYPDWYQQTPGQAPRLLIYNTNSRHSGVPSRFSGSISGNKAALTITGAQPEDEADYYCNLYMGSGGSKVFGGGTKLTVLG	0.0002
57B6 Fab (Fab, V domains shown, Llama-derived Fab from phage display; MYC tag at C-terminus of Fd) VH: QLQLVESGGGLVQPGGSLRLSCAASGFSFSHYAMSWVRQAPGKGLEWVSGDNTYDGGTRYQDSVKGRFTISRDNGKNTLYLQMNSLKPEDTAVYYCAKDTGRGIMGEYGMDYWGKGTLVTVSS VL: QTVVTQEPSLSVSPGGTVTLTCGLKSGSVTSSNYPAWYQQTPGQAPRLLIYNTNSRHSGVPSRFSGSISGNKAALTITGAQPEDEADYYCALYMGSGSANAMFGGGTHLTVLG	4e-05
5F4 Fab (Fab, V domains shown, Llama-derived Fab from phage display; MYC tag at C-terminus of Fd) VH: EVQVQESGGGLVHPGGSLKLSCAASGFTFDTYAMSWVRQAPGKGLEWVSAISWSGGETFYAESMKGRFTISRNNAKNTLYLQMNSLKSEDTAVYYCARGMGLAEGLTDWGQGTQVTVSS VL: QAVVTHPPSLSASPGSSVRLTCTLISGDNIGGYDISWYQQKTGSPPRYLLYYYSDSYKHQSSGVPSRFSGSKDASANAGLLLISGLQSEDEADYYCSAYKSGSYKAPVFGGGTHLTVLG	0.0005
9G2 Fab (Fab, V domains shown, Llama-derived Fab from phage display; MYC tag at C-terminus of Fd) VH: QVQLVESGGGLMQPGGSLRLSCAASGFTFSSSAMSWVRQAPGKGLEWVSSIYSDSSYTYYADSVKSRFTISTDNAKNTLYLQMNSLKPDDTAVYYCAGSSDYEGSFASWGQGTQVTVSS VL: QSVVTQPPSLSASPGSSVRLTCTLSSGNSVGNYDISWYQQKAGSPPRYLLYYYSDSVKHQGSGVPSRFSGSSDASANAGLLLISGLQPEDEADYYCSAYKSGSHVFGGGTKLTVLG	0.00018
9B2 Fab (Fab, V domains shown, Llama-derived Fab from phage display; MYC tag at C-terminus of Fd) VH: QLQVVESGGGLMQPGGSLRLSCAASGFTFSGSAMSWVRQAPGKGLEWVSSIYSHSMYTYYADSVKSRFTISTDNAKNTLYLQMNSLKPDDTAVYYCAASSDYEGLFVSWGQGTQVTVSS VL: QAVLTQPPSLSASPGSSVRLTCTLNSANSVGSYDISWYQQKAGSPPRYLLYYYSDSLSHQGSGVPSRFSGSTDASANAGLLLISGLQPEDEADYYCSAYNRGSHVFGGGTKLTVLG	0.00061
9D1 Fab (Fab, V domains shown, Llama-derived Fab from phage display; MYC tag at C-terminus of Fd) VH: EVQLVESGGGLVQPGGSLRLSCAASGFTFSVYYMNWVRQAPGKGLEWVSDINNEGGTTYYADSVKGRFTISRDNAKNTLTLQMNSLKPEDTALYYCVRDAGYSNHVPIFDSWGQGTQVIVAS VL: QAVVTQEPSLSVSPGGTVTLTCGLSSGSVTSSHYPGWYQQTPGQAPRLLIFNTNSRHSGVPSRFSGSISGNKAALTITGAQPEDEADYYCALLNIDDGSTMFGGGTHLTVLG	0.0002
